Assay results reported in patent publication US20220033493A1.

Key:
[1] = molecular target: CaVβ2b with N-terminal deca-histidine tag (purified from E. coli); experiment: isothermal titration calorimetry, purified proteins, 25 °C
[2] = molecular target: CaVβ2b with N-terminal deca-histidine tag (purified from E. coli); experiment: isothermal titration calorimetry, nb.F3 injected into CaVβ2b, T=298K
[3] = molecular target: CaVβ2b with N-terminal deca-histidine tag (purified from E. coli); experiment: isothermal titration calorimetry, purified proteins, 25 °C, nb.F3 injected into CaVβ2b

- stoichiometry [1]: 1
- Ka [2]: 1.07e+08 M⁻¹
- N (stoichiometry) [2]: 0.93
- ΔH [2]: -14.9 kcal/mol
- ΔS (cal mol-1 K-1) [2]: -13.8
- Kd [3]: 13.2 nM
B1: nb.F3 with N-terminal deca-histidine tag (purified from E. coli) (VHH)
VHH: QVQLQESGGGLVQAGGSLRLSCVASGRTFSSYAMGWFRQAPGKEREFVAAIDWSGGTASHADSVKGRFTISRDNAKNTVYLQMNSLKPEDTAVYYCAASSYWSRSVDEYDYWGQGTQVTVSS
